Laboratory results taken from PMC10069166 (Heliyon, 2023).

Molecular target: SARS-CoV-2 Spike protein (RBD, His & Avi tag) (SARS-CoV-2, wild type, UniProt P0DTC2)
Assay: BLI

B1: 80R antibody (antibody, V domains shown)
VH: EVQLVQSGGGVVQPGKSLRLSCAASGFAFSSYAMHWVRQAPGKGLEWVAVISYDGSNKYYADSVKGRFTISRDNSKNTLYLQMNSLRAEDTAVYYCARDRSYYLDYWGQGTLVTVSS
VL: TTLTQSPATLSLSPGERATLSCRASQSVRSNLAWYQQKPGQAPRPLIYDASTRATGIPDRFSGSGSGTDFTLTISRLEPEDFAVYYCQQRSNWPPTFGQGTKVEVK
binding result: no binding (tested: 20 nM and 10 nM)
